# Measurements taken from patent US20100261660A1 (published 2010).
# Target: T1, Soluble CTLA-4-Ig (extracellular domain of human CTLA-4 fused to the Fc portion of human IgG1) (human, UniProt P16410 36-161, FITC-conjugated in the FACS binding assays)
# T1 construct: extracellular domain; bought from R&D Systems; also called sCTLA-4-Ig; CTLA-4-Ig Fc; not shown: Fc portion of human IgG1
# Experiment: competitive FACS on transfected cells, FITC-sCTLA-4-Ig with biotin-sCD28-Ig; grade 0-2 of CTLA-4/CD28 ratio vs WT hB7-1
# T1 sequence (P16410 36-161): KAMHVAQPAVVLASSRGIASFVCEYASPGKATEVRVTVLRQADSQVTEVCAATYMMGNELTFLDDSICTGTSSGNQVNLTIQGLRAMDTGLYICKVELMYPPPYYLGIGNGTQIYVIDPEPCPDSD
row,Binder,Binding Score
1,"Round 1 (R1) CTLA4BP-5 (ligand, also called R1-5) VIHVTKEVKEVATLSCGHNVSVEELAQTRIHWQKEKKMVLTMMSGDMNIWPEYKNRTIFDITNNLSIVILALRPSDEGTYECVVLKYEKDAFKREHLAEVTLSVKADFPTPSISDFEIPPSNIRRIICSTSGGFPEPHLSWLENGEELNAINTTVSQDPGTELYTVSSKLDFNMTTNHSFMCLIKYGHLRVNQTFNWNTPKQEHFPDNLLPSWAITLISVNGIFVICCLTYCFAPRCRERRRNERLRRESVRPV",2
2,"Round 1 CTLA4BP-27 (ligand, also called R1-27; R1 CTLA-4BP-27) VIHVTKEVKEVATLSCGLNVSVEELAQTRIYWQKEKKMVLTMMSGDMNIWPEYKNRTIFDITNNLSIVILALRPSDEGTYECVVLKYEKDAFKREHLAEVMLSVKADFPTPSISDFEIPPSNIRRIICSTSGGFPEPHLSWLENGEELNAINTTVSQDPETELYTVSSKLDFNMTANHSFVCLIKYGHLRVNQTFNWNTPKQEHFPDNLLPSWAITLISVNGIFVICCLTYCFAPRCRERRRNETLRRESVRPV",1
3,Round 2 CTLA4BP 2x1-f10 (ligand) VIHVTKEVKEVATLSCGHNVSVEELAQTRIHWQKEKKMVLTMMSGDMNIWPEYKNRTIFDITNNLSIVILALRPSDEGTYECVVLKYEKDAFKREHLAEVMLSVKADFPTPSITDFEIPPSNIRRIICSTSGGFPEPRLAWMEDGEELNAINTTVSQDPGTELYAVSSKLDFNMTTNHSFMCLIKYGHLRVNQTFNWNTPKQEHFPDNLLPSWAITLISVNGISVICCLTYCFAPRCRERRRNERLRRESVCPV,1
4,"Round 1 CTLA4BP-11 (ligand, also called R1-11; R1 CTLA-4BP-11) VIHMTKEVKEVATLSCGHNVSVEELAQTRIYWQKEKKMVLTMMSGDMNIWPEYKNRTIFDITNNLSIVILALRPSDEGTYECVVLKYEKDAFKREHLAEVMLSVKADFPTPSITDFEIPPSNIRRIICSTSGGFPEPHLFWLENGEELNAINTTVSQDPETELYAVSSKLDFNMTTNHSFMCLIKYGHLRVNQTFNWNTTKQEHFPDNLLPSWAITLISVNGIFVICCLTHCFAPRCRERRRNERLRRESVHPV",1
5,Round 2 CTLA4BP 2x1-b12 (ligand) VIHMTKEVKEVATLSCGHNVSVEELAQTRIYWQKEKKMVLTMMSGDMNIWPEYKNRTIFDITNNLSIVILALRPSDEGTYECVALKYEKDAFKQEHLAEVTLSVKADFPTPSISDFEIPPSNIRRIICSTSGGFPEPRLAWMEDGEELNAINTTVSQDPETELYTVSSKLDFNMTANHSFMCLIKYGHLRVNQTFNWNTPKQEHFPDNLLPSWAITLISVNGIFVICCLTYCFAPRCRERRRNERLRRESVCPV,1
6,"Round 1 CTLA4BP-13 (ligand, also called R1-13; R1 CTLA-4BP-13) VIHVTKEVKEVATLSCGHNVSVEELAQTRIYWQKEKKMVLTMMSGDMNIWPEYKNRTIFDITNNLSIVILALRPSDEGTYECVVLKYEKDAFKREHLAEVTLSVKADFPTPSISDFEIPTSNIRRIICSTSGGFPEPHLFGLENGEEINAINTTASQDPETELYTVSSKLDFNMTPNRSFVCLIKYGHLRVNQTFNWNTPKQEHFPDNLLPSWAITLISANGIFVICCLTYCFAPRCRERKSNERLRRESVRPV",1
7,Round 2 CTLA4BP 2x1-c4 (ligand) VIHVTKEVKEVATLPCGHNVSVEELAQTRIHWQKEKKMVLTMMSGDMNIWPEYKNRTIFDITNNLSIVILALRPSDEGTYECVVLKYEKDAFKREHLAEVMLSVKADFPTPSITDFEIPPSNIRRIICSTSGGFPEPHLFWLENGEELNAINTTVSQDPGTELYAVSSKLDFNMTTNHNFMCLIKYGHLRVNQTFNWNTPKQEHFPDNLLPSWAITLISVNGIFVICCLTYCFAPRCRERRRNERLRRESVRPV,1
8,Round 2 CTLA4 A-B11-5 (ligand) ITPKSATKRVKETVMLSCDYSTSTEELTSLRIYWQKDSKMVLAILPGKVQVWPEYKNRTITDMNDNPRIVILALRLSDSGTYTCVIQKPDLKGAYKLEHLTSVRLMIRADFPVPTINDLGNPSPNIRRLICSTSGGFPRPHLYWLENGEELNATNTTLSQDPETKLYMISSELDFNMTSNHSFLCLVKYGDLTVSQTFYWQESKPTPSANQHLTWTIIIPVSAFGISVIIAVILTCLTCRNAAIRRQRRENEVEMQSCSQSP,1
9,Round 2 CTLA4 A-F6-9 (ligand) ITPKSVTKRVKETVMLSCDYSTSTEELTSLRIYWQKDSKMVLAILPGKVQVWPEYKNRTITDMNDNPRIVILALRLSDSGTYTCVIQKPDLKGAYKLEHLTSVRLMIRADFPVPTINDLGNPSPNIRRLICSTSGGFPRPHLYWLENGEELNATNTTLSQDPETKLYMISSELDFNMTSNHSFLCLVKYGDLTVSQTFYWQESKPTPSANQHLTWTIIIPVSAFGISVIIAVILTCLTCRNAAIRRQRRENEVEMQSCSQSP,1
10,Round 2 CTLA4 A-G8-1 (ligand) ITPKSVTKRVKETVMLSCDYNTSTEELTSLRIYWQKDSKMVLAILPGKVQVWPEYKNRTITDMNDNPRIVILALPLSDSGTYTCVIQKPDLKGAYKLEHLTSVRLMIRADFPVPTINDLGNPSPNIRRLICSTSGGFPRPHLYWLENGEELNATNTTLSQDPETKLYMISSELDFNMTSNHSFLCLVKYGDLTVSQTFYWQESKPTPSANQHLTWTIIIPVSAFGISVIIAVILTCLTCRNAAIRRQRRENEVEMQSCSQSP,1

# The remaining lines, values ahead:
row,Binding Score,Binder
1,1,Round 2 CTLA4BP 5x2-d7 (ligand) VIHMTKEVKEVATLSCGLNVSVEELAQTRIHWQKEKKMVLTMMSGDMNIWPEYKNRTIFDITNNLSIVILALRPSDEGTYECVVLKYEKDAFKREHLAEVMLSVKADFPTPSISDFEIPPSNIRRIICSTSGGFPEPHLSWLENGEELNAINTTVSQDPETGLYTVSSKLDFNMTTNHSFMCLIKYGHLRVNQTFNWNTPKQEHFPDNLLPSWAITLISVNGIFVICCLTYCFAPRCRERRRNERLRRESVRPV
2,1,Round 2 CTLA4BP 2x2-f1 (ligand) VIHVTKEVKEVATLSCGHNVSVEELAQTRIHWQKEKKMVLTMMSGDMNIWPEYKNRTIFDITNNLSIVILALRLSDEGTYECVVLKYEKDAFKREHLAEVTLSVKADFPTPSISDFEIPTSNIRRIICSTSGGFPEPHLFWLENGEELNAINTTASQDPETELYTVSSKLDFNMTTNRSFVCLIKYGHLRVNQTFNWNTPKQEHFPDNLLPSWAITLISVNGIFVICCLTYCFAPRCRERRRNERLRRESVRPV
3,1,Round 2 CTLA4BP 2x1-g8 (ligand) VIHVTKEVKEVATLSCGHNVSVEELAQTRIHWQKEKKMVLTMMSGDMNIWPEYKNRTIFDITNNLSVVILALRPSDEGTYECVVLKYEKDAFKREHLAEVTLSVKADFPTPSITDFEIPPSNIRRIICSTSGGFPEPHLSWLENGEELNAINTTVSQDPGTELYTVSSKLDFNMTTNRSFVCLIKYGHLRVNQTFNWNTPKQEHFPDNLLPSWAITLISVNGIFVICCLTYCFAPRCRERKSNERLRRESVRPV
4,1,Round 2 CTLA4BP 5x1-f1 (ligand) VIHVTKEVKEVATLSCGLNVSVEELAQTRIYWQKEKKMVLTMMSGDMNIWPEHKNRTIFDITNNLSIVILALRPSDEGTYECVVLKYEKDAFKREHLAEVTLSVKADFPTPSITDFEIPPSNIRRIICSTSGGFPEPHLFWLENGEELNAINTTASQDPETELYTVSSKLDFNMTANHSFVCLIKYGHLRVNQTFNWNTPKQEHFPDNLLPSWAITLISVNGIFVICCLTYCFAPRCRERRRNETLRRESVRPV
5,0,Round 2 CTLA4BP 2x4-h11 (ligand) VIHVTKEVKEVATLSCGHNVSVEELAQTRIYWQKEKKMVLTMMSGDMNIWPEYKNRTIFDITNNLSIVILALRPSDEGTYECVVLEYEKDAFKREHLAEVMLSVKADFPTPSISDFEIPPSNIRRIICSTSGGFPEPHLSWLENGEELNAINTTVSQDPGTELYAVSSKLDFNMTTNHSFMCLIKYGHLRVNQTFNWNTPKQEHFPDNLLPSWAITLISVNGIFVICCLAYCFAPRCRGRRRNERLRRESVRPV
6,1,Round 2 CTLA4BP 5x2-b7 (ligand) VIHVTKEVKEVATLSCGHNVSVEELAQTRIHWQKEKKMVLTMMSGDMNIWPEYKNRTIFDITNNLSIVILALRPSDEGTYECVVLKYEKDAFKREHLAEVTLSVKADFPTPSITDFEIPPSNIRRIICSTSGGFPEPHLSWLENGEELNAINTTVSQDPGTELYTVSSKLDFNMTANHSFVCLIKYGHLRVNQTFNWNTPKQEHFPDNLLPSWAITLISANGIFVICCLTYCFAPRCRERRRNERLRRESVRPV
7,1,Round 2 CTLA4BP 5x1-d7 (ligand) VIHVTKEVKEVATLSCGHNVPVEELAQTRIYWQKEKKMVLTMMSGDMNIWPEYKNRTIFDITNNLSIVILALRPSDEGTYGCVVLEYEKDAFKREHLAEVMLSVKADFPTPSITDLEIPPSNIRRIICSTSGGFPEPHLFWLENGEELNAINTTASQDPETELYAVSSKLDFNMTTNHSFMCLIKYGHLRVNQTFNWNTPKQEHFPDNLLPSWAITLISANGIFVICCLTYCFAPRCRERRRNERLRRESVHPV
8,1,Round 2 CTLA4BP 2x1-h12 (ligand) VIHVTKEVKEVATLSCGLNVSVEELAQTRIHWQKEKKMVLTMMSGDMNIWPEYKNRTIFDITNNLSIVILALRPSDEGTYECVVLKYEKDAFKREHLAEVMLSVKADFPTPSITDFEIPPSNIRRIICSTSGGFPEPHLSWLENGEELNAINTTVSQDPGTELYTVSSKLDFNMTTNHSFMCLIKYGHLRVNQTFNWNTPKQEHFPDNLLPSWAITLISANGIFVICCLTYCFAPRCRERKSNERLRRESVCPV
9,1,Round 2 CTLA4BP 2x2-f12 (ligand) VIHVTKEVKEVATLSCGHNVSVEELAQTRIHWQKEKKMVLTMMSGDMNIWPEYKNRTIFDITNNLSIVILALRPSDEGTYGCVVLEYEKDAFKREHLAEVMLSVKADFPTPSISDFEIPPSNIRRIICSTSGGFPEPHLSWLENGEELNAINTTVSQDPETELYAVSSKLDFNMTTNHSFMCLIKYGHLRANQTFNWNTPKQEHFPDNLLPSWAITLISVNGIFVICCLTYCFAPRCRERRRNERLRRESVRPV
